According to patent publication US20230210968A1, “RIBONUCLEOPROTEIN APPROACH TO BOOST THE STING SIGNALING FOR CANCER IMMUNOTHERAPY” (MASSACHUSETTS INSTITUTE OF TECHNOLOGY, priority 2020, published 2023):

What was measured:
[1] = system: STINGΔTM-induced STING signaling in HEK293T cells; assay: Interferon activity in HEK293T cells pretreated with chemical inhibitors, then cGAMP-STINGΔTM; format: cell-based, human; details: increasing inhibitor concentrations before cGAMP-STINGΔTM treatment
Procedure: For the HEK293T cells, a reporter derivative from this cell line was first generated by transfecting pGL4.45[luc2P/ISRE/Hygro] (Promega company) and stably selected in 200 μg/ml hydromycin. The pGL4.45[luc2P/ISRE/Hygro] vector contains five copies of an interferon-stimulated response element (ISRE) that drives transcription of the luciferase reporter gene luc2P (Photinus pyralis). luc2p is a synthetically-derived luciferase sequence with humanized codon optimization that is designed for high expression and reduced anomalous transcription. The luc2P gene contains hPEST, a protein destabilization sequence, which allows luc2P protein levels to respond more quickly than those of […] to induction of transcription. […] Commercial transfection reagent TranslT-X2TM was used to help transfection (2 μg pDNA mixed with 4 μL TranslT-X2TM in 250 μL Opti-MEM media for each 6-well). […] Transfected cells were also harvested for western blotting.

MC38 cells = assay: Therapeutic treatment study, MC38 colon cancer model; format: in vivo, C57BL/6 mice; details: intratumoral, 100 μg protein and/or 2.5 μg cGAMP, days 7, 14, 21, 28, 35
Procedure: A therapeutic treatment study with an MC38 colon cancer model was then performed. […] The tumor size and survival were monitored on a schedule similar to that of the prophylactic study.

[2] = system: intracellular trafficking of the tetrameric complex (EEA1, TBK1, Golgi apparatus, LAMP1); assay: Immunocytochemistry / confocal microscopy of intracellular trafficking; format: cell-based
Procedure: Immunocytochemistry: Transfection and immune staining were performed in Millicell® EZ chamber slides (Millipore Sigma, Temecula, Calif., USA). […] Cells were imaged with an Inverted Olympus IX83 microscope equipped with a Hamamatsu ImagEM high sensitivity camera at the Swanson Biotechnology Center (MIT).

[3] = Transmission electron microscopy particle size; details: in PBS
[4] = target: the molecule itself; assay: FPLC size exclusion, cGAMP titration; self-association
[5] = target: the molecule itself; assay: FPLC size exclusion with cGAMP; self-association
[6] = tetrameric complex, 6 h post-transfection

For `C[C@H]1CCC/C=C/[C@@H]2C[C@H](O)C[C@H]2[C@H](O)/C=C/C(=O)O1` [BFA, brefeldin A], the “interferon activity after inhibitor pretreatment” value [1] was “insignificant effect”.

For `Nc1nc2c(ncn2[C@@H]2O[C@@H]3COP(=O)(O)O[C@H]4[C@@H](O)[C@H](n5cnc6c(N)ncnc65)O[C@@H]4COP(=O)(O)O[C@@H]2[C@@H]3O)c(=O)[nH]1` [cGAMP, 2′3′ cyclic guanosine monophosphate-adenosine monophosphate], the tumor burden (MC38 cells) was “significantly reduced tumor burden”.

In the case of `CCN(CC)CCCC(C)Nc1ccnc2cc(Cl)ccc12` (stereo not shown) [CQ, chloroquine], the “interferon activity after inhibitor pretreatment” value [1] is reported as “increased interferon activity”.

For `O=C(NCCCNc1nc(Nc2cccc(CN3CCOCC3)c2)ncc1C1CC1)C1CCC1` [MRT, MRT67307], the “interferon activity after inhibitor pretreatment” value [1] was “decrease with increasing concentrations”.

In the case of `CO/C1=C\C(C)=C\[C@@H](C)[C@@H](O)[C@@H](C)C/C(C)=C/C=C/[C@H](OC)[C@@H]([C@@H](C)[C@@H](O)[C@H](C)[C@@]2(O)C[C@@H](O)[C@H](C)[C@@H](C(C)C)O2)OC1=O` [BafA1, bafilomycin A1], the “interferon activity after inhibitor pretreatment” value [1] is reported as “decreasing activity observed with increasing concentrations”.

B1: mSTINGΔTM (mouse STING amino acids 138-378) (other)
chain: LTPAEVSAVCEEKKLNVAHGLAWSYYIGYLRLILPGLQARIRMFNQLHNNMLSGAGSRRLYILFPLDCGVPDNLSVVDPNIRFRDMLPQQNIDRAGIKNRVYSNSVYEILENGQPAGVCILEYATPLQTLFAMSQDAKAGFSREDRLEQAKLFCRTLEEILEDVPESRNNCRLIVYQEPTDGNSFSLSQEVLRHIRQEEKEEVTMNAPMTSVAPPPSVLSQEPRLLISGMDQPLPLRTDLI
notes: Runs as a dimer (~60 kDa) without cGAMP and as a tetramer (~120 kDa) with cGAMP; Entries with this molecule as both partners are self-association; also called mouse STINGΔTM; recombinant transmembrane-deficient STING
For B1, the “co-localization with LAMP1” value ([2]; 24 h post-transfection) was “co-localization with Lysosomal Associated Membrane Protein 1 (LAMP1) at 24 h post-transfection”, the “co-localization with Early Endosome Antigen 1 (EEA1)” value [2, 6] was “limited co-localization” and the “co-localization with TBK1” value [2, 6] was “co-localization of TBK1 with STINGΔTM in punctate structures”. The “co-localization with the Golgi apparatus” value ([2]; with or without the addition of BFA) was “no significant evidence of STINGΔTM co-localization with the Golgi apparatus”, the “particle diameter (TEM)” value [3] was ~14 nm and the binding result [4] was “binds”.

B2: mouse STINGΔTM Q272A/A276Q (other)
chain: LTPAEVSAVCEEKKLNVAHGLAWSYYIGYLRLILPGLQARIRMFNQLHNNMLSGAGSRRLYILFPLDCGVPDNLSVVDPNIRFRDMLPQQNIDRAGIKNRVYSNSVYEILENGQPAGVCILEYATPLQTLFAMSADAKQGFSREDRLEQAKLFCRTLEEILEDVPESRNNCRLIVYQEPTDGNSFSLSQEVLRHIRQEEKEEVTMNAPMTSVAPPPSVLSQEPRLLISGMDQPLPLRTDLI
notes: Expressed His-tagged; also called Q272A/A276Q mutant; functional double mutant at the tetramer interface
B2: binds [5].

B3: mSTINGΔTM R237A-Y239A (other)
chain: LTPAEVSAVCEEKKLNVAHGLAWSYYIGYLRLILPGLQARIRMFNQLHNNMLSGAGSRRLYILFPLDCGVPDNLSVVDPNIRFRDMLPQQNIDRAGIKNAVASNSVYEILENGQPAGVCILEYATPLQTLFAMSQDAKAGFSREDRLEQAKLFCRTLEEILEDVPESRNNCRLIVYQEPTDGNSFSLSQEVLRHIRQEEKEEVTMNAPMTSVAPPPSVLSQEPRLLISGMDQPLPLRTDLI
notes: Expressed His-tagged; also called STINGΔTM R238A/Y240A; R237A/Y239A mutant STINGΔTM
B3: binds [4].
